Numbering of substitutions follows the chain as printed. Names may count otherwise.
What was measured:
[1] = molecular target: LxT peptide library (x-x-x-x-Leu-x-Thr-x-x-x peptides with a fixed lysine tail K-K-K)
[2] = molecular target: MBP-AMPKa (1-312) bacterial fusion protein
[3] = molecular target: R-T peptide library (arginine fixed at the -1 position of a threonine phosphoacceptor)
[4] = molecular target: T1, STRAD (human, from pCDNA4 HisMax), Q7RTN6
T1 chain: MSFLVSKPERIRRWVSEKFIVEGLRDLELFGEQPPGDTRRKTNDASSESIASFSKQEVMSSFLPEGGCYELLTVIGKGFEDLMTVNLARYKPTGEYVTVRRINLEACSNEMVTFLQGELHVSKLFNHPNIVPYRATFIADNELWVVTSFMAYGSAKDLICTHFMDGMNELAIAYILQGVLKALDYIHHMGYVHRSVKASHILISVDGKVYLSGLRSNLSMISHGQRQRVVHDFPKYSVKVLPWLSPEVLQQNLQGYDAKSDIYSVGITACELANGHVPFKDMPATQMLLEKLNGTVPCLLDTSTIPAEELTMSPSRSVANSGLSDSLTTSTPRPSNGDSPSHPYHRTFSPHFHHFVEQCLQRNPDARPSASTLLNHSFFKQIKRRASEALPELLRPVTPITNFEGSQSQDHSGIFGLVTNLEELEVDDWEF

B1: STRAD-activated LKB1 (Flag-tagged wild-type human LKB1 co-expressed with STRAD, Flag immunoprecipitate) (protein)
chain 1: MEVVDPQQLGMFTEGELMSVGMDTFIHRIDSTEVIYQPRRKRAKLIGKYLMGDLLGEGSYGKVKEVLDSETLCRRAVKILKKKKLRRIPNGEANVKKEIQLLRRLRHKNVIQLVDVLYNEEKQKMYMVMEYCVCGMQEMLDSVPEKRFPVCQAHGYFCQLIDGLEYLHSQGIVHKDIKPGNLLLTTGGTLKISDLGVAEALHPFAADDTCRTSQGSPAFQPPEIANGLDTFSGFKVDIWSAGVTLYNITTGLYPFEGDNIYKLFENIGKGSYAIPGDCGPPLSDLLKGMLEYEPAKRFSIRQIRQHSWFRKKHPPAEAPVPIPPSPDTKDRWRSMTVVPYLEDLHGADEDEDLFDIEDDIIYTQDFTVPGQVPEEEASHNGQRRGLPKAVCMNGTEAAQLSTKSRAEGRAPNPARKACSASSKIRRLSACKQQ
chain 2: T1 chain
phosphorylation of degenerate peptide libraries (32P incorporation, p81 paper) [1]: leucine at the -2 position was strongly selected | AMPK kinase activity towards the SAMS peptide after in vitro phosphorylation by LKB1 [2]: induced AMPK kinase activity an average of 27 and 50 fold, respectively | trans-phosphorylation of MBP-AMPKα in vitro [2]: co-expression of LKB1 with STRAD led to a dramatic proportional increase in LKB1 autophosphorylation and trans-phosphorylation of MBP-AMPKα | phosphorylation of degenerate peptide libraries (32P incorporation, p81 paper) [3]: Arginine in the -1 position was selected over random amino acids

B2: Flag-tagged human LKB1, wild-type, immunoprecipitated from HT1080 cells (protein)
chain: B1 chain 1
LKB1 autophosphorylation in vitro [4]: co-expression of LKB1 with STRAD led to a dramatic proportional increase in LKB1 autophosphorylation | phosphorylation of the SAMS peptide (32P γ-ATP) (SAMS peptide): LKB1 alone was incapable of detectably phosphorylating the SAMS peptide | AMPK kinase activity towards the SAMS peptide after in vitro phosphorylation by LKB1 [2]: induced AMPK kinase activity an average of 27 and 50 fold, respectively | in vitro phosphorylation of MBP-AMPKα (32P incorporation; phospho-Thr172 immunoblot) [2]: wild-type but not kinase-dead LKB1 immunoprecipitated from mammalian cells efficiently phosphorylated a bacterially expressed maltose-binding protein (MBP) fusion product of the AMPKα catalytic subunit in vitro

B3: Flag-tagged human LKB1, kinase dead (K78I), immunoprecipitated from HT1080 cells (protein)
chain: B1 chain 1 with K78I
AMPK kinase activity towards the SAMS peptide after in vitro kinase reaction with LKB1 [2]: Kinase-inactive LKB1 alone or coexpressed with STRAD was unable to activate AMPK | in vitro phosphorylation of MBP-AMPKα (32P incorporation; phospho-Thr172 immunoblot) [2]: wild-type but not kinase-dead LKB1 immunoprecipitated from mammalian cells efficiently phosphorylated

From patent publication US20080194019
